According to the NTF2 design screens of Basanta et al. (2020):

Experiment: protease stability score; higher = more stable; yeast display proteolysis, trypsin and chymotrypsin;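 also: log10 excess protease needed over predicted unfolded state with 0 meaning unfolded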

| Sequence | protease stability score |
| --- | --- |
| DEKRVEELARKLFKYIINGDQEKVKTLLKPNVEYNYIDTQYKGPDAAVTMAQEVKKVGAEVKVREEKVEGNTAEVVFQYRVGDNTMQTKAQVHYEGDKVKEVRVELSEEVKKVVHQG | 0.124 |
| DDQEERDWNERMKQVLRTGDEHRLEQLMDENVRMRVGDSVVTGREKVRQVFHELMKQADKIEVKSVSAQGNEVLIRFVLNHNGKNDDVVIEVRVHNGRIKEIVIRSK | -0.001 |
| DEKQALDVAHEAARAVAEGDDQKLREHMDPNATMEYGDKQVHGRENIMRVAKEFRDRADNVEIKSVHLTGNKVNVHVLLTHNGHTQRVRIDAKAHNGRVKSIRLDDK | 1.06 |
| DDEKKARTLLKQLKEAFENNDEDRARQLMDKDVRLDIGDKTYHGREEAAEAWHRLVETVDHMDMKVRHIENRNGHMVVNADMVLHRDGRQKRLKVTFTARDDNGHAVLVHVSFD | 1.45 |
| DEDVQDQYRKILEAEKKNNPDHLNELMDPNVKFNVGDHTIHGREQRKEKQDELVKESRYDIKVDRVSVKGNKFVAKFKVTEEHNGRPHTTVLVIVMTVENGHVKRLQVKRDK | -0.001 |
| EKEAKTLAHHVMEALEKNDPDQMDEQLDENARVQVGDREVHGREEVNKQIKRLKKHAHFEIESVTLDVQGDKVDAQYTMRADVNGKPWRDHVTVEIHVRNGRIKELRFRMDPQRLRDFKK | 0.72 |
| DDENRHMAEEMMQIFKHGDHDRHRQLIDPNVKVKIGDKEYHGMEKLVQRHKEEVDQIRFEVKTVSVHNQGDKLKVEWRYVADFNGRPHDVRDDYTIDVRNGKVRSIDYNVDPRELETLLR | -0.128 |
| DHTIDEVFKQFETAKNDNDPDQLKKNADPNVDYTVGDQFVEGREHAADDIRRRREQQRNEIRSLRHSVQGNDIDVSVDMEVEHNGKPSDFTQRIDVVAHNGKIKHQTAHQEG | -0.505 |
| DEDASRHVRDMIRALQTGDRDKVARYIDPNATMQVGDKRYHGNERIKEQVKRTKDTMRYHMEIKDVHVEGDHIKVDFTFSNNKNGTPTSDRAQIDIRMTNGHATSIVLHNNK | -0.001 |
| DENVLKRVKELLRTNNWEELANKADKDVEMRVGDKEWRGREQVVRAHKKLYDRVDHFKIDSMHWRNGHLVVNFVAEVNGKRAVMVLEMKVHNGRIKRITLEARDKDDEEFIEEALR | 1.47 |
| DHEKNKQHVDQFNEILKNGNPDEANKLADKDVEIEVGDKRYHGHEDFRKYQEEIAEQADHVKVTEVEVDGNKANVDVVLRINGKNLRRTFLLQIHNGRLKRLSFDPDQWDKARG | 0.91 |
| DEKQNQEMQDMLHTGDFKRIADLVDENAEWNYGDKTYHGRKTIKKFLDAFQHRADHVEVKRFDVHNGHVSANMQMNVDGRRIDFRVVVHVENGRVKEYRMDFTDPRQQREVERQVE | 0.745 |
| DQDHLRELVHTFNRLLEQGNFDELANMFDKNARVDVGDKSYHGQEQVRTWFKHLRQRVDHFHVKHYKVRGDEATIHVIMDVNGQKRNVTVRLSFSNGRADHIQIDPDHKQELDK | 1.56 |
| DTKERQNRAEEINKNFKEGNPHEYMSMLDKNASAQVGDKQVHGRERMSKRIEDIVRRADKLTIETFHVSGDKVEIVVQLIVNGTRVRMEVEIKFENGHAKHVEFNPEQDKQLKQ | 0.421 |
| DDEAKEHVEDFIRALKDNNPDEVDEYIDKDAKVHVGDTIYHGREEVRRDVERKKRHLRFDYEDVKIEVHGEKVVAHMKVEYQHNGRPDKARVILDVRFHNGRVRSLHIQEQK | -0.095 |
| DDQEIAEQAARDFDTAVQEGDEDQIVRMADPNVQLQIGDERYRGREDLRKWIKDIRRQVDHVDVRVRDLKVQGEHVRARIEVQYTENGKTRRYQFEMTNNIHNGRVRMTQVNEK | 0.948 |
| DREQQHVAREFLEAHNEGDEDRMVQLADPNARVHVGDKEVHGREELKKWVRDVEKKMNVQIDVRSIHAHNGKIRITARISFKINGEPRSDRIRFDFRAHNGTLKDFHLKVSEEQRKKKQQ | 0.075 |
| DERDVHRIAEQLIKAMQTGDEKKLTDLADKDAEAQIGDKEIHGNHDFSRAMREFRERVDHIELKDIRVHNGHVSVDIVADINGVQLRFVITMEVKNGKVRQLSVEVRDPEQEKTALS | 0.9 |
| DESITEFASHWKEVLEHGDFRRMADNVDEDVKVRIGDKEIHGRTRYRRRAKKQEDEISFRLQDLHVEVQGDHIVAKFQATVKINGQPNTFTVNVVMRVHNGRIKYMEQQFSEEDEDKLTQ | 0.534 |
| DEELVDQVKSFIELLQKGNEDELMKQLDEDAKIHYGDKTIHGREQVREWVKRFKDEMRQKIDSVQFREKPNRVSMKADMSYTQNGTPHDQQIDATFRAHNGRIKQVNIQLTK | -0.084 |
| DEEVKTVAEEFWKAIQTGDPDQVKTQVDENARMRVGDKSIHGSDNISTDVERERKEIKVKYNIQDIRASNGTVRVRMDVRRNHNGKPREHEQTMTQTIDNGKIQDVNISTDG | -0.46 |
| DQEEAKKVAEQAIKYVENGNLTELMDMLKDGGEYQVADDKKHGKEVLYKLVKILQRLGVEVEFKRTEIEGNTVTTDVDYRLGDEEATAQAHAEVQGGRIDRVQIDADEHLKKWIKHG | 0.606 |
| DEQEERDFNRNMVEILQQGDEEKARTNMDKDAHATYGDREYHGREQLADLLKEFRDRVDHIEMKDYSVTNGRVNVVFVAVFDGKRVELHADIQFRNGRIKRMTFKFRNEEQQKKLER | 0.361 |
| DHEEVRQYEDAVEAEETGDKEKLQRYMDPNVKFHVGDKTLHGREDVARKQKEDRERIRIRYKSMDIKVRGDKVDFKMSFVVNHNGRPQRETRTFTIDLHNGTFKHADWKESG | -0.014 |
| DEENVRLARHYADAEARGDHDTIVELLDPNAKVDVGDHEVTGDEHVREELKKKHNQWRAELKDVKASVRGDKLRLKITFVVHINGRPSEQTIDARADIKDGRFKSFSVTIDPQEERHNES | 0.395 |

| Sequence | protease stability score |
| --- | --- |
| DEKRYEELVKKAFDVIRNGNEEEMRKLGKPDVEYKYADKEFEGEEAMQTMVQVVKRIGAKVEIQHEEVHGDTAHAVFVYKKGNRTAQTTVKVVYEGDKLKKAEVKMTDEVRKVLHDG | -0.024 |
| DEDTLRKVAETLMKALKTNDSESLKQMMDKDVKMTVGDKKYQGREEAADHLIELAQSVDHLEVRSVDNQGNHASVEFEVQHNGRNDTVHLRFEISNGRVKNVVLHTP | 1.99 |
| EREVVQEAAKAINSNDFRRLSELMDKDVKMQYGDKTLSGREEVETLLKSLHEQIDTFTVDHYHVEGNKAEVDARFHFNGKRLRMHLYAVAHNGRIQEMKIQATTEHQQEELSRLWR | 0.613 |
| DEETHANEFLKTREKALTSNDETELRRLVPPDVRFQVGDKQIHGREEWARKLKDDRTRVDHVTVRVVSITVRPNHIKVNLQEEVVVNGTRSRDRYEAHIVNENGHMQMHSFRQQ | -0.396 |
| EDHTLREFQKNWQHNNPDELEKMMDPNVKIVIGDKKYHGKEEAKRINKQIVDQADHIDIRRVEVSGNKLEIRMVLNVNGNTRELVVIFKLHNGRIKHVEFKFTDERQKNFQEEMLQ | 1.08 |
| DEHVEHLVHEIMDALRTNDPDRLRQLMDPNAHAQIGDKQLHGRRTMVDHWQDTLEEIRVSIDVKSFSVKNGRADMTAKVEREDNGKPDDRTADIHIEFHNGKAVRIDVKYKG | 0.275 |
| DEKHAHKIVRAWSQGDPDQLAELADPNVRLVVGDKTYDGRESFVKWLKDLRKRIDHVRVDSVKINGNKIEIDMRFQVDGVHLVVTVDIEFKNGKIKDVRIQYRDEEQLKDIKKVVR | 1.2 |
| DEELITSANEMLQQLTTGNPQEIEKQADPNARVVVGDKTYTGMDQMARDRATEVQQIRRSFRIKTVQNQGDNANIHAEYEFNINGQPRTFELTLNVEAHNGKFVHIKYHLDPDHLNKLES | -0.078 |
| DEEKMEIVLNAFTAMATNNEEDIERLMDPNVKVTIGDTVIHGREQLQKNADRHRRSARINIKSMSAEVQGDTVRVVVNATREHNGRPQTFQLRAVAVAHNGKVKELNVEEKQ | 1.48 |
| DEELLHRIRDFLRAVRHGDSDHLRQLMDEDVKMTVGDHEIHGRERILDKIKQTRDEQRIHIQVRSMHADGDKATVHADIENEHNGQPQTAKLRMTVQVENGRIKQIDVEIKQ | 0.904 |
| DQSELRDFVEEFLEIFRHGNEDDARRLVDKDATAKVGDKTYNGEEQVLDFLKQLRNRADHVQIDTFRVEGDKMEAHMRLNVNGKTVQVVIQAEVRNGRIKHFRMDPNDLRKLEK | 0.657 |
| DEEEELRRAVKAIKQYMTGNEQEVSKMADPNVKIQVGEKRIHGREQLRQEVKRLHDTVDHIEVLSITHTGNSAQVDARVEVDGRVQRFVLRVVMHNGRITSIVVEVTDEDRFKNMVK | 1.2 |
| DERAVKRMEKFIKVLINGNPDDLKEYLDENVKVDVGDKRIHGRETFMNEAEKDKRQMSVSLKEVRVDAHNGRLQVNARVHINHNGTPRDKEYVMQAILHNGRIKSMRVQSTG | 0.835 |
| DEKRMKELMDKVFRLVMEGNEEDVVKMGAPDVKYKYADHEYKGPEVMKEVAVMVRRLGAEVRVKRKEVHGDTAQADFDYRKGDTTVRTTARVKYEGDKVKRAEVEVSDEVKKIVHQG | 0.144 |
| DDEKARQQVREFIRAMETGDEDSMVQQLDENAHVHIGDHVWRGREQARNAFKEFVKQFDRIEVKRVEYRNGDVVIDAVANVNGVRVRIIFKIHIHNGRIKNLRIEYRDEEEKKQLDG | 1.99 |
| DDQKTANHLNKQFKDVWTSGDEHRLQELMDPNVRVDVGDKRYKGDEQVNKYFIDLLRNVDHVDFDVKDMKARGEKVLLVVDIRVDINGKRHRFNARQIFTVEGDQARVKVYHDG | 0.653 |
| DNRLQRWADRWLEVVETGNPEEIRKLVDKDVDVEIGDQQYKGQDHLSKQWKDFHKHAKLEIKDYKIDVEGDRLVINVDAVYNVNGQPRRNRYNLEFKLHNGKVRSVHFRIDPDEQRKMDS | 1.44 |
| DDSANERAKKVMHALKTGDPDTMSELLDPNATVDVGEKQVKGMDNIVDILRKERDQIRYSIDVKRMNAKGDKVVVDATRESHHNGQPRSWHFTIFFNNTNGRVKNLKVEESG | 0.626 |
| DPKKLYKVAIRVVRAAVSGDVEKVVKMYKPDGKLTLGDQELRGREQIKKYADKFYRKGKRFQADHIRVTGNRVEVIMKFTLGGQTVTFQFYIKLKDDQVDEYEFRFNEEAEKMMRTG | 0.276 |
| EERVQKMLEDAMRTNDEVELIKSAPPNAKVVVGDKKIKGHEEAHRWAVRFKEQVDHTEIKHLDINGDKVSLDFSIVINGKKIRVVVKVTATNGKVREVHVQATSEDDQEQLKRDIK | 0.652 |
| EEELFEQWQKIIENQEHGNEDRLQDQFDPNARIDVGDKRIRGRENLAKDQQDKLDNIRFDFQIDHVQDRPGKIVIKYHEVNNHNGKPRSDTVVVHIQAHNGKIQRIDVQKDK | -0.065 |
| DEEATKELREWLHNRTKNNEEELHKYADPNAKFVIGDKTYHGMEEAVESQVHKDKHMNIHIESIHMDADGEHVRASEVVTFEVNGKPFRYSFRYNVTMSNGRLKSQSVRVDERDEEQEKQ | -0.325 |
| DDQEDAEKAARRFNKIVNENNFDDLLNQFDPNARIQVGDKQYHGRSEISKFMQKWKRQIDHLEAHLKDVKVDNGRIDVKFKFQFHKNGTRVDRDMSLDARRQGDQINIQELHLG | 0.198 |
| DRQASEVARKILQAIRKGDPETMKELVDPNVNVTVGEKTFKGREEAARHFVERQKQIRVQVDSMEVSAHNGKVDARMKVLYNHNGRPVKMDVVVHFDMKNGKARRAEYRVDEEQRRRLET | 0.082 |
| DDEERAHEIFKKYQHVLKSNDEDKDRELMDPNARLHIGDKQYHGREQVTKYWHEVLTHADHLEANLKDFRVKGESINIVYTFRQNEDGRDSQVIIEMVMKRQGDHYTVTDNTQK | -0.044 |
